The test deals with T1, C-terminally hexa-histidine (His6)-tagged VapC10 (toxin, PIN-domain protein, slr1767) of Synechocystis sp. … (Synechocystis sp. PCC 6803, UniProt P73045 1-112).
T1 construct: also called VapC10-His6; VapC-His6; not shown: His6, C-terminal, kept
T1 sequence (looked up): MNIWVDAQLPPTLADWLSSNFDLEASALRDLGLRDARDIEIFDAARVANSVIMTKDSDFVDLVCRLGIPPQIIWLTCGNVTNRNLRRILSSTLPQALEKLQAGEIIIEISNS
As to the kind of experiment: pull-down. The note with it: partners not purified.

We go through one molecule from PMC3834315.

B1: VapB10 (antitoxin, COG2442-domain protein, ssr2962) of Synechocystis sp. PCC 6803 (natural protein, UniProt P73044 1-74, looked up)
chain: MNSLLSRITQTPGQCGGRPCIRGMRIRVSDILEMLAENVSTSEILEDFPDLEMADIQACLVFAARRTDFSRLTA
notes: source: E. coli BL21(DE3)(pJS653), co-expressed with VapC10-His6, in cleared lysate
For the molecule B1, the “stoichiometry N” value is around 1 VapB10 per VapC10-His6.

By stoichiometry N is commonly meant the number of molecules, sites or subunits per partner or assembly.
